Read-outs that look alike come from different tables or passages of the source. Non-standard residues stand in square brackets, D forms with d. *: point of attachment. Phe(F5) = N[C@@H](Cc1c(F)c(F)c(F)c(F)c1F)C(=O)O; Desaminotyrosyl = O=C(CCc1ccc(O)cc1)*; Agmatine = N=C(N)NCCCCN*; Nle = CCCC[C@H](N)C(=O)O; Orn = NCCC[C@H](N)C(=O)O; Abu = CC[C@H](N)C(=O)O; GABA = NCCCC(=O)O
Assays:
[1] = molecular target: T1, human GHRH receptor (human pituitary membrane homogenates) (human, UniProt Q02643 23-423); experiment: radioligand competition vs 125I-JV-1-42 (0.2 nM), human pituitary membranes
T1 construct: whole, on cells; Native receptor in human pituitary membrane homogenates, not on intact cells; also called hGHRH receptor
T1 sequence (looked up): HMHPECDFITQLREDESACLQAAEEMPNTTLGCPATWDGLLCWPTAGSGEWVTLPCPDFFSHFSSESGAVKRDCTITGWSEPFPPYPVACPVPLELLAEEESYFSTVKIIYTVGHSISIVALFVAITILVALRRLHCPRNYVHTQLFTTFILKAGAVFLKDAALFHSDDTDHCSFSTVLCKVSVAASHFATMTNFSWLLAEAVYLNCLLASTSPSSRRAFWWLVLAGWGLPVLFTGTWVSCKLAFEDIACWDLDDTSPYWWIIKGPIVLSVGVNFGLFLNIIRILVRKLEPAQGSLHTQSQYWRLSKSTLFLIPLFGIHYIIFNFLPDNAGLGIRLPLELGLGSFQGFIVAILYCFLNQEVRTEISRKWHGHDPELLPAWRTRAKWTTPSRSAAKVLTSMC
Text: (§1) Normal human pituitaries were purchased from the National Hormone and Peptide Program (A. F. Parlow, Los Angeles, County Harbor-UCLA Medical Center, Torrance, Calif.).

[2] = molecular target: T1, human GHRH receptor (human pituitary …); experiment: as above; remark: listed apart in the source
Text: as §1

B1: P-20350 [Dat^1, D-Ala^2, Gln^8, Orn^12, Abu^15, Orn^21, Nle^27, Asp^28, Agm^29]hGHRH(1-29)NH2 (peptide)
peptide: [Desaminotyrosyl][dA]DAIFTQSYR[Orn]VL[Abu]QLSAR[Orn]LLQDI[Nle]D[Agmatine]
SMILES: CCCC[C@H](NC(=O)[C@@H](NC(=O)[C@H](CC(=O)O)NC(=O)[C@H](CCC(N)=O)NC(=O)[C@H](CC(C)C)NC(=O)[C@H](CC(C)C)NC(=O)[C@H](CCCN)NC(=O)[C@H](CCCNC(=N)N)NC(=O)[C@H](C)NC(=O)[C@H](CO)NC(=O)[C@H](CC(C)C)NC(=O)[C@H](CCC(N)=O)NC(=O)[C@H](CC)NC(=O)[C@H](CC(C)C)NC(=O)[C@@H](NC(=O)[C@H](CCCN)NC(=O)[C@H](CCCNC(=N)N)NC(=O)[C@H](Cc1ccc(O)cc1)NC(=O)[C@H](CO)NC(=O)[C@H](CCC(N)=O)NC(=O)[C@@H](NC(=O)[C@H](Cc1ccccc1)NC(=O)[C@@H](NC(=O)[C@H](C)NC(=O)[C@H](CC(=O)O)NC(=O)[C@@H](C)NC(=O)CCc1ccc(O)cc1)[C@@H](C)CC)[C@@H](C)O)C(C)C)[C@@H](C)CC)C(=O)N[C@@H](CC(=O)O)C(=O)NCCCCNC(=N)N
notes: also called Peptide 20350
Relative affinity (Binding potency) vs GHRH [1]: 102 fold
Relative affinity (Binding potency) vs JI-38 [1]: 42.7 fold
Relative affinity (Binding potency) vs JI-38 [2]: 8.37 fold

B2: P-25502 [Dat^1, D-Ala^2, Fpa5^6, Orn^12, Abu^15, Orn^21, Nle^27, Gab^30]hGHRH(1-30)NH2 (peptide)
peptide: [Desaminotyrosyl][dA]DAI[Phe(F5)]TNSYR[Orn]VL[Abu]QLSAR[Orn]LLQDI[Nle]SR[GABA]-NH2
SMILES: CCCC[C@H](NC(=O)[C@@H](NC(=O)[C@H](CC(=O)O)NC(=O)[C@H](CCC(N)=O)NC(=O)[C@H](CC(C)C)NC(=O)[C@H](CC(C)C)NC(=O)[C@H](CCCN)NC(=O)[C@H](CCCNC(=N)N)NC(=O)[C@H](C)NC(=O)[C@H](CO)NC(=O)[C@H](CC(C)C)NC(=O)[C@H](CCC(N)=O)NC(=O)[C@H](CC)NC(=O)[C@H](CC(C)C)NC(=O)[C@@H](NC(=O)[C@H](CCCN)NC(=O)[C@H](CCCNC(=N)N)NC(=O)[C@H](Cc1ccc(O)cc1)NC(=O)[C@H](CO)NC(=O)[C@H](CC(N)=O)NC(=O)[C@@H](NC(=O)[C@H](Cc1c(F)c(F)c(F)c(F)c1F)NC(=O)[C@@H](NC(=O)[C@H](C)NC(=O)[C@H](CC(=O)O)NC(=O)[C@@H](C)NC(=O)CCc1ccc(O)cc1)[C@@H](C)CC)[C@@H](C)O)C(C)C)[C@@H](C)CC)C(=O)N[C@@H](CO)C(=O)N[C@@H](CCCNC(=N)N)C(=O)NCCCC(N)=O
notes: also called Peptide 25502; MR-502
Relative affinity (Binding potency) vs GHRH [1]: 58 fold
Relative affinity (Binding potency) vs JI-38 [1]: 24.4 fold
Relative affinity (Binding potency) vs JI-38 [2]: 13.2 fold

— patent US20140193378A1 (UNIVERSITY OF MIAMI, published 2014)
